The values below come from patent publication US20120164110A1, “DIFFERENTIALLY METHYLATED REGIONS OF REPROGRAMMED INDUCED PLURIPOTENT STEM CELLS, METHOD AND COMPOSITIONS THEREOF” (priority 2009, published 2012).

Entries after “also recorded” stand apart in the source; their conditions may differ.

For assay [1], the system named is intermediate or partial states of reprogramming. The note with it: cited from earlier work.
The next assay deals with NSC-NP-iPSC. The assay is described as follows: methylcellulose hematopoietic colony forming assay of EB-differentiated cells. Type of assay: cell-based, mouse. The following applies: Wnt3a 40 ng/ml in EB culture media between day 2 and 4, versus non-treated EBs. How it is done: (§1) Differentiation of iPSC to hematopoietic and osteogenic lineages was performed as follows. Hematopoietic colony forming activity of d6 EBs differentiated from pluripotent stem cells was measured in methylcellulose medium with IL3, IL6, Epo, and SCF (M3434, StemCell Tech.) as described in Kyba et al. (Cell (109)29-37 (2002)). Hematopoietic colony type was determined on day 10. Colony identity was confirmed by leukostain analysis of cytospin preparation of the methylcellulose colonies. Osteogenic differentiation was performed by culturing pluripotent stem cells in 15 μl hanging drops (800 cells/drop) in ES differentiation media^16. Embryoid bodies (EB) from hanging drops were collected at 2 days, transferred to a 10 cm dish of non-tissue culture grade plastic with 10^−6 M of retinoic acid, and cultured for 3 days on the shaker (50 rpm) in an incubator. EBs were equally distributed among 3 wells of a 6-well tissue culture dish, and cultured in aMEM media supplemented with 10% FBS, 1× penicillin/streptomycin/glutamine (Invitrogen), 2 nM triiodothyronine, 1× insulin/transferrin/[…] (Gibco, #51300-044). The media were changed every other day. On day 11, one well of each sample was used to measure calcium concentration, osteogenic gene expression (RNA isolation), and for Alizarin Red staining. For Alizarin Red staining, cells were washed with PBS and fixed with 4% paraformaldehyde for 5 minutes at 20 C. Fixed cells were incubated for 15 minutes in Alizarin Red staining solution (Alizarin Red (Sigma, A5533) 2% in H2O, pH 4-4.3 adjusted with NH4OH, filtered with 0.45 uM membrane), and washed with Tris-HC1, pH4.0. Elemental calcium concentrations were measured by inductively coupled plasma—atomic emission spectroscopy (ICP-AES, HORIBA Jobin Yvon Activa-M) as described in Nomlru et al. (Anal. Chem. (66)3000-3004 (1994)) at the Center for Materials Science and Engineering at MIT, and three measurements were conducted to obtain mean and standard deviation values. […]

Another assay deals with NP-iPSC. The assay is described as above. It is filed as cell-based, mouse. The note with it: Wnt3a 40 ng/ml in EB culture media between day 2 and 4, versus non-treated EBs. How it is done: as §1
For the next assay, the system named is B-NP-iPSC. Described as above. It is filed as cell-based, mouse. The following applies: Wnt3a 40 ng/ml in EB culture media between day 2 and 4, versus non-treated EBs. How it is done: as §1

With `Nc1ncn([C@@H]2O[C@H](CO)[C@@H](O)[C@H]2O)c(=O)n1` [5-AZA, 5-azacytidine], the “effect on intermediate states of reprogramming” value in assay [1] was “can convert intermediate states to full pluripotency”.

B1: Wnt3a: exogenous Wnt3a cytokine (R&D System, 1324-WN-002/CF) (protein, UniProt P56704 19-352, looked up)
Protein Wnt-3a: SYPIWWSLAVGPQYSSLGSQPILCASIPGLVPKQLRFCRNYVEIMPSVAEGIKIGIQECQHQFRGRRWNCTTVHDSLAIFGPVLDKATRESAFVHAIASAGVAFAVTRSCAEGTAAICGCSSRHQGSPGKGWKWGGCSEDIEFGGMVSREFADARENRPDARSAMNRHNNEAGRQAIASHMHLKCKCHGLSGSCEVKTCWWSQPDFRAIGDFLKDKYDSASEMVVEKHRESRGWVETLRPRYTYFKVPTERDLVYYEASPNFCEPNPETGSFGTRDRTCNVSSHGIDGCDLLCCGRGHNARAERRREKCRCVFHWCCYVSCQECTRVYDVHTCK
Regarding B1, the blood-forming potential entry is reported as “restored” in the assay on NSC-NP-iPSC and “restored; also recorded: enhanced” in the assay on NP-iPSC. Also, in the assay on B-NP-iPSC, the hematopoietic potential result was “little effect”.
